Patent US20160114017A1 (UNIVERSITY OF PITTSBURGH OF THE COMMONWEALTH SYSTEM OF …, published 2016)

B1: Native IL-13Rα2345-353 peptide (peptide)
peptide: WLPFGFILI
notes: Synthetic peptide incubated with T2 cells at 1 nM overnight; also called IL-13Rα345-353; wild type IL-13Rα2345-353
B2: IL-13Rα2-V9 peptide (I replaced with V at P9) (peptide)
peptide: WLPFGFILV
notes: Synthetic modified peptide; also called IL-13Rα2345-9V

Biological target: T1, HLA-A2 on the cell surface (HLA-A2 transfected T2 cell line; SNB19 glioma cells) (human)
T1 construct: whole, on cells; Class I MHC on cells; also called HLA-A*0201
Assay: T2 cell HLA-A2 stabilisation, flow cytometry, peptide 1 nM overnight
Protocol: The binding capability of these modified peptides was assessed using an HLA-A2 transfected T2 cell line. Aliquots of T2 cells were incubated with modified peptides or IL-13Rα2₃₄₅₋₃₅₃ at 1 nM overnight, and then examined for the surface expression levels of HLA-A2 on T2 cells by flow cytometry. Since stable binding of HLA-A2 with peptide epitopes further stabilizes the surface expression of HLA-A2 (Francini et al., 2002; Alves et al., 2003), quantitative expression levels of HLA-A2, which is indicated by Mean Fluorescence Intensity (MFI) in Table 1, correlate with the binding affinity of the peptide-epitopes that are co-incubated with the T2 cells.

| Binder | Binding Index (MFI) |
| --- | --- |
| B1 | 237 |
| B2 | 376 |
